This note sets out measurements from publication PMC7407080, “Methylglyoxal Detoxification Revisited: Role of Glutathione Transferase in Model Cyanobacterium Synechocystis sp. Strain PCC 6803” (mBio, 2020).

Data set [1] addresses T1, Sll0067 GST (Synechocystis sp. PCC 6803, UniProt Q55139).
T1 sequence (Q55139 1-184): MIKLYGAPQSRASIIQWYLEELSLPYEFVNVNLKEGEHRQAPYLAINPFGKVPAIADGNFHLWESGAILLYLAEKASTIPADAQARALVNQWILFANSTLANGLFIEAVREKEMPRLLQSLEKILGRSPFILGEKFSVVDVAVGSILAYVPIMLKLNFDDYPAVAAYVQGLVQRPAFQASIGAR
Description: initial velocity of GSH-MG conjugation with added S-lactoylGSH. The following applies: activator; co-substrates GSH and MG. Type of data set: biochemical.

The target in data set [2] is Sll0067 glutathione transferase (GST) of Synechocystis sp. strain PCC 6803, His-tagged recombinant protein (Synechocystis sp. strain PCC 6803). As to the kind of experiment: SEC-MALS; 300 ug of purified protein in 300 ul injected at 0.5 ml/min on an analytical Superdex 200 10/300 column, 30 mM Tris-HCl pH 8.0, 200 mM NaCl; miniDAWN TREOS detector and T-rEX refractometer.

Data set [3] deals with T1, Sll0067 GST. As to the kind of experiment: absorbance at […] nm, GSH conjugation, Michaelis-Menten fit. Type of data set: biochemical. The note with it: 1 mM GSH; 30 mM Tris-HCl pH 8.0, 1 mM EDTA; 25°C; read-out: affinity (apparent Km).
Substrate in data set [4]: S=C=NCc1ccccc1
As to the kind of experiment: purified protein. The data set is classed as biochemical, Synechocystis sp. PCC 6803. The following applies: 1 mM GSH, 100 mM phosphate pH 6.5, 25°C.

Substrate in data set [5]: S=C=NCCc1ccccc1
Description: purified protein. Type of data set: biochemical, Synechocystis sp. PCC 6803. The following applies: 1 mM GSH, 100 mM phosphate pH 6.5, 25°C.

Substrate in data set [6]: CC(=O)C=O
Description: two-substrate steady-state kinetics, remaining MG by DDP fluorescence; secondary plot, allosteric sigmoidal fit. The following applies: varied GSH, 100 mM potassium phosphate, 1 mM EDTA, pH 7.5, 30°C, Hill number 1.873 ± 0.261. Type of data set: biochemical, Synechocystis sp. PCC 6803. The source says: two-substrate steady-state kinetics, remaining MG by DDP fluorescence; secondary plot, allosteric sigmoidal fit on Sll0067 GST

Turning to `C[C@@H](O)C(=O)SC[C@H](NC(=O)CC[C@H](N)C(=O)O)C(=O)NCC(=O)O` [S-D-lactoylglutathione], the “initial velocity of GSH-MG conjugation with added S-lactoylGSH” value in data set [1] was “All measured initial velocities of Sll0067 activity were increased by S-lactoylGSH”.

As to “Sll0067 glutathione transferase (GST) of Synechocystis sp. strain PCC 6803, His-tagged recombinant protein (enzyme)”, in data set [2], the stoichiometry N – broadly, a count of units in the complex or per binding partner – worked out at 2.

Regarding `O=[N+]([O-])c1ccc(Cl)c([N+](=O)[O-])c1` [1-chloro-2,4-dinitrobenzene], the Km (in general, the substrate concentration at which the rate is half of its maximum) in data set [3] came out at 3.8 mM.

B1: Sll0067 GST (Synechocystis sp. PCC 6803 substr. Kazusa) (protein)
chain: MIKLYGAPQSRASIIQWYLEELSLPYEFVNVNLKEGEHRQAPYLAINPFGKVPAIADGNFHLWESGAILLYLAEKASTIPADAQARALVNQWILFANSTLANGLFIEAVREKEMPRLLQSLEKILGRSPFILGEKFSVVDVAVGSILAYVPIMLKLNFDDYPAVAAYVQGLVQRPAFQASIGAR
For B1, the figures for the Km in data set [4] and in data set [5] were 82.0 µM and 31.4 µM, respectively. The K0.5 in data set [6] came to 221.7 ± 26.3 µM.
